The target in assay [1] is T1, recombinant cyno IL1RAP ECD (cynomolgus monkey, UniProt P59822 21-367 (rhesus entry)).
T1 construct: also called rcynoIL1RAP
T1 sequence: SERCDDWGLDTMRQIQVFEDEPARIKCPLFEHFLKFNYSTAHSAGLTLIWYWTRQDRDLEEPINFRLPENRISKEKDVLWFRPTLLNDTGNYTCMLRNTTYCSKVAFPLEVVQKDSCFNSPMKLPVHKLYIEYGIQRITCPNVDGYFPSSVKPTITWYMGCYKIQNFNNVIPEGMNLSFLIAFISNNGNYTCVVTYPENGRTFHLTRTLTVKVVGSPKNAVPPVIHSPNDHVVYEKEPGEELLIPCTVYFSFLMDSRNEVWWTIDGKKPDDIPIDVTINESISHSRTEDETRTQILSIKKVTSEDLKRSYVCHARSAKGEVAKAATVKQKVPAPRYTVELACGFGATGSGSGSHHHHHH
Kind of assay: recombinant protein.

Assay [2] concerns the target T2, recombinant human IL1RAP ECD (human, UniProt Q9NPH3 21-367).
T2 construct: His-tagged; also called hIL1RAP-ECD; rhuIL1RAP
T2 sequence: T1 sequence with F183L, P273T, T326K
Kind of assay: SPR, summary. (In general: In SPR one partner is held on a chip, and binding of the other changes the refractive index at the surface.)

The target in assay [3] is T2, recombinant human IL1RAP ECD. Kind of assay: SPR (ProteOn).
The target in assay [4] is T3, cyno IL1RAP ECD displayed on HEK-293F cells (pDisplay) (cynomolgus monkey, UniProt P59822 21-367 (rhesus entry)).
T3 sequence: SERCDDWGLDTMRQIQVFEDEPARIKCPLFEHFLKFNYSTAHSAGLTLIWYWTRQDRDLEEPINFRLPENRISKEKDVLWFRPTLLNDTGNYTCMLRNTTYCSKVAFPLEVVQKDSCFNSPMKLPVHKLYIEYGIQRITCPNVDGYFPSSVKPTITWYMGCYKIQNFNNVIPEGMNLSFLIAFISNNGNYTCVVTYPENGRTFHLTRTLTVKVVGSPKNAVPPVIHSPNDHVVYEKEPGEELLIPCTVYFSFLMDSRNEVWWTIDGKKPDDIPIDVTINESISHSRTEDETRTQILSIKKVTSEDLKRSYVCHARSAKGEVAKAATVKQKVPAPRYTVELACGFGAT
Kind of assay: HEK-293F cells (MSD).

Assay [5] addresses T2, recombinant human IL1RAP ECD. Kind of assay: SPR; KD against parent IAPB54.
Assay [6] addresses T4, human FcγRIIb (human, UniProt P31994 43-217, limits assumed).
T4 construct: GST-tagged
T4 sequence (looked up): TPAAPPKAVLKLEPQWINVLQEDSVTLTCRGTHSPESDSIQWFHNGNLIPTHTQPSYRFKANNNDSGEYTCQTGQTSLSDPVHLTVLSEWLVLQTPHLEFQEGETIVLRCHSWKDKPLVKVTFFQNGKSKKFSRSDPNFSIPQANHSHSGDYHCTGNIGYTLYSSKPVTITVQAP
Kind of assay: AlphaScreen competition, human FcγRIIb (n=1); displaced: biotinylated control mAb B21M hIgG1 WT; pH 7.2. An excerpt: (§1) Measurements were made using an AlphaScreen™ assay (Amplified Luminescent Proximity Homogeneous Assay (ALPHA), PerkinElmer, Wellesley, Mass.), a bead-based luminescent proximity assay. Laser excitation of a donor bead excites oxygen, which if sufficiently close to the acceptor bead generates a cascade of chemiluminescent events, ultimately leading to fluorescence emission at 520-620 nm.

Assay [7] concerns the target T5, human FcγRI (human, UniProt P12314 16-292, limits assumed).
T5 construct: GST-tagged, on glutathione acceptor beads; also called FcγRT [sic]
Kind of assay: AlphaScreen competition, human FcγRI (n=1); displaced: biotinylated control mAb B21M hIgG1 AlaAla; pH 7.2.
Text: as §1
For orientation: Bead proximity is the source of the signal in Alpha formats.

Assay [8] concerns the target T6, human FcRn (human, UniProt P55899 24-297; P61769 21-119, limits assumed).
T6 construct: GST-tagged
Kind of assay: AlphaScreen competition, human FcRn (n=1); displaced: biotinylated control mAb B21M WT IgG1 (m27); pH 6.0.
Text: as §1

Results on two molecules are retold here after patent US20190270826A1 (Janssen / Centocor, published 2019).

Changes are numbered by the printed parent chain. Numbers in names are those of the source.

B1: IAPB54 (antibody, human IgG4 S228P, lambda, F234A L235A, V domains shown)
VH: QVQLVQSGSELKKPGASVKVSCKASGYTFNTYAMNWVRQAPGQGLEWMGWINTNTGNPTYAQGFTGRFVFSLDTSVSTAYLQISSLKAEDTAVYYCARRYFDWLLGAFDIWGQGTMVTVSS
VL: QSALTQPRSVSGSPGHSVTISCTGTSSDVGDYNYVSWYQQRPGKVPKLLIYDVSKRPSGVPDRFSGSKSGNTASLTISGLQAEDEAIYFCCSYAGNYNVVFGGGTKLTVLG
notes: IgG4-PAA; also called 17B04 with human IgG4-PAA
As usually defined, the Kd is the concentration at which binding is half-saturated. As usually defined, the koff is the rate constant with which the complex falls apart. By kon is commonly meant the second-order rate constant of association. B1: in assay [1], the binding result is on record as “binds”. For the same molecule, the Kd in assay [2] stood at 0.58 nM. Moreover, in assay [3], the Kd is 0.0775 nM, the koff was 7.48e-05 s⁻¹ and the on-rate constant (kon) amounted to 965000 M⁻¹ s⁻¹. Further, the binding result in assay [4] is reported as “binds”. In addition, the “Fold Different from parent” value in assay [5] was 1 fold.

B2: IAPB63 (antibody, human IgG4 S228P, lambda, F234A L235A)
heavy: not shown
light: QSALTQPRSVSGSPGHSVTISCTGTSSDVGDYNYVSWYQQRPGKVPKLLIYDVSKRPSGVPDRFSGSKSGNTASLTISGLQAEDEAIYFCASYAGNYNVVFGGGTKLTVLGQPKAAPSVTLFPPSSEELQANKATLVCLISDFYPGAVTVAWKADSSPVKAGVETTTPSKQSNNKYAASSYLSLTPEQWKSHRSYSCQVTHEGSTVEKTVAPTECS
notes: IgG4-PAA; whole chains; also called IAPB54-LC-C91A
Consider B2, for which the binding result in assay [6] is “binds”. Further, the “IC50 (read off the curve)” value in assay [7] is about 90 nM. For the same molecule, in assay [2], the Kd is 0.11 nM. In addition, in assay [3], the dissociation constant Kd amounted to 0.108 nM, the dissociation rate constant (koff) came to 9.76e-05 s⁻¹ and the association rate constant (kon) was 900000 M⁻¹ s⁻¹. Also, the “Fold Different from parent” value in assay [5] stood at 1.4 fold. The “IC50 (read off the curve)” value in assay [8] is about 200 nM.
